We go through one molecule from patent US20070184522A1, “Cell death modulation via antagonists of Fasl and Fas activation” (University of Pittsburgh of the Commonwealth System of …, priority 2004, published 2007).

The experiment has as its target T1, Fas-Fc (extracellular part of Fas) (Mus musculus, UniProt P25446).
T1 construct: purchased R&D
T1 sequence (P25446 22-169 limits assumed): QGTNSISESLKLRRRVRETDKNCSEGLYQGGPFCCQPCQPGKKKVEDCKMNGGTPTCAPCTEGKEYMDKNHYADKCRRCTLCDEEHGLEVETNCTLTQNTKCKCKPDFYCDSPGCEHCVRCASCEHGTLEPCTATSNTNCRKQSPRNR
The experiment is described as follows: Fas-Fc pull down assay with protein-A agarose. It counts as binding. From the text: The Met alpha but not beta chain binds to Fas (FIG. 1a). Various regions of the mouse Met cDNA corresponding to the alpha chain or the extra-cellular portion of the Met beta chain were cloned into expression vectors (pCRT7 TOPO/AlphaMet or pCRT7 TOPO/beta chain) and subjected to in vitro transcription/translation by a rabbit reticolucyte lysate translation system. Empty vector was included in each experiment as a control. The expressed proteins were labeled with ^35S-Methionine. Pull down assays were performed using Fas-Fc, a chimeric molecule which lacks the interacellular cytoplasmic domain and protein-A agarose as described in Wang et al., 2002. FIG. 1b is a schematic presentation of the Met alpha chain and its mutant version used to map the region interacting with Fas. The C-terminus of each construct contains a hexa-Histidine tag for ease of detection. Start cordon ATG was added to the N-terminally truncated constructs. The YLGA (SEQ ID NO:1) motif mutation was prepared by PCR, in which YLGA (SEQ ID NO:1) was replaced by DHER (SEQ ID NO:24). […] In vitro translated ^35S-methionine labeled truncated/mutated AlphaMet proteins were pulled down with 2 μg of Fas-Fc or the same amount of IgG. Lane 1: 10% of AlphaMet input; Lane 2: AlphaMet with IgG control; Lanes 3 to 8: pull down of various truncated AlphaMet proteins; N-terminal 1-106 residues; C-terminal truncated, residues 1-210; alpha chain, residues 1-306; alpha chain with transmembrane domain, 1-338; N-terminally truncated alpha chain, residues 100-306; and N-terminally truncated with addition of the transmembrane domain 100-338, respectively. FIG. 1d depicts the amino acid sequence alignment of alpha chain with FasL, determined using the CLUSTALW, SIM+LALNVIEW, and ALIGN at ExPASy Proteomic Tools (available on the internet at us.expresly.org/tools). The numbers indicate the amino acid residues of the indicated protein. […] Recombinant His-tagged AlphaMet or its mutant version were expressed in E. coli, purified with chromatography, and subjected to Fas-Fc (lanes labeled Fas) or control IgG pull down experiments, and detected by Western blot using anti-His antibody that recognizes C-terminal His. This antibody also recognizes the Fas-Fc which is also tagged at the C-terminus by His. […] Purified recombinant AlphaMet protein (approximately 10 μg) was mixed with Hepa 1-6 cells or Jurkat cell lysates and subjected to immunoprecicitation using anti-Fas antibody or control IgG followed by Western blot using anti His-tag antibody as a probe. […] After washing the wells, anti-human […]-HRP conjugates (1:20,000) were added to detect the bound Fas-Fc using TMD dye and the OD value was determined at a wavelength of 450 nm. […]

B1: alpha subunit of Met (AlphaMet), amino acid residues 1 to 306, His-tagged (receptor, mouse)
chain: MKAPTVLAPGILVLLLSLVQRSHGECKEALVKSEMNVNMKYQLPNFTAETPIQNVVLHGHHIYLGATNYIYVLNDKDLQKVSEFKTGPVLEHPDCLPCRDCSSKANSSGGVWKDNINMALLVDTYYDDQLISCGSVNRGTCQRHVLPPDNSADIQSEVHCMFSPEEESGQCPDCVVSALGAKVLLSEKDRFINFFVGNTINSSYPPGYSLHSISVRRLKETQDGFKFLTDQSYIDVLPEFLDSYPIKYIHAFESNHFIYFLTVQKETLDAQTFHTRIIRFCSVDSGLHSYMEMPLECILTEKRRKRHHHHHH
For the molecule B1, the “Fas binding in Fas-Fc pull down” value is listed as “bound specifically to the Fas molecule” (in vitro translated 35S-labeled proteins, autoradiography, listed as Met alpha chain); “bound Fas very efficiently” (in vitro translated 35S-labeled proteins, autoradiography, listed as full length AlphaMet); “bound avidly” (recombinant His-tagged proteins expressed and purified in E. coli, Western blot anti-His).
